Biological target: T1, LldR (Escherichia coli K-12 W3110 type-A) (UniProt P0ACL7)
T1 sequence: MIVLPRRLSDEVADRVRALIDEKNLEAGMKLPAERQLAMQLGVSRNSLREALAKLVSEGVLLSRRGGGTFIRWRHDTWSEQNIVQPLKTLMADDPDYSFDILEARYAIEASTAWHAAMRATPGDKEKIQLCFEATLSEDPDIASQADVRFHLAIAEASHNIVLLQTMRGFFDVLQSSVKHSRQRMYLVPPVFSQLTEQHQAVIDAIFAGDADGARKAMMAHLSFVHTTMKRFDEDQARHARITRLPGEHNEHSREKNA
Experiment: EMSA
Conditions: EMSA: binding buffer (composition given for gSELEX: 10 mM Tris-HCl pH 7.8 at 4 °C, 3 mM Mg acetate, 150 mM NaCl, 1.25 mg/ml BSA), 37 °C 30 min, then effector …

Question: How did the binding turn out when “GATTTTCAACCAGATATGATCATGGTTACGCCATCTTATTGCCTTAACCTGATTGAAGAGCTGGAGCGGCAGTTGGGCGGTGATGCCAGCGGTTGCTCGCTGCGGGTTGGAGTATTTGGTGCTGAGCCGTGGACACAGGCCATGCGTAAAGAGATTGAGCGTCGCCTGGGGATCACCGCACTGGATATTTATGGCCTGTCAGAAGTGATGGGGCCGGGGGTGGCGATGGAGTGTCTGGAAACTACCGACGGCCCAACCATTTGGGAAGATCATTTCTATCCTGAAATTGTTA (double strand) [paaX promoter probe]” was run?
Answer: Its binding is “no binding”.

Question: Which binding does the source give for “TCCCGGACCTCGTGCACAGGTAGGACCAATTTTTCTGTTCTTAACTCGCAAAACACGCACATCACGTAAGTGATTATGTTACATCAATTTAACATTGAGTTAACCAAGACAAGGTCACAGAGCTGGAAAAAAAATGGTCTGACCGGTAGCTAAAGAGATAGACGAAAACGAAAAGCCCGCTTAATAACTGTTCACAGAAGCAGCGCGCAAAAATCAGCTGCCACACAACACAACAAAGCGAAGCCTACTCATGAGCATCTTGTACGAAGAGCGTCTT (double strand) [glcD/glcC probe]” here?
Answer: The binding was “binds”.
